This assay deals with prostate specific antigen (Homo sapiens).

In turn, “Analog 215 (Illudin S-Pro-Ser-Ser-Gln-Chg-Ser-Ser-Hyp-Ac) (peptide)” came in with an IC50 (48 hour exposure), Prostate LnCAP (positive PSA) of more than 20000 nM.

On to “Analog 210 (Ac-Hyp-Ser-Ser-Chg-Gln-Ser-Ser-Pro-O-(CH2)3-acylfulvene) (peptide)”, for which the IC50 (48 hour exposure), Prostate DuPro (trace PSA) worked out at 3500 nM and the IC50 (48 hour exposure), Prostate LnCAP (positive PSA) came out at 810 nM.

In turn, “Analog 216 (Illudin M-Pro-Ser-Ser-Gln-Chg-Ser-Ser-Hyp-Ac) (peptide)” came in with an IC50 (48 hour exposure), Prostate DuPro (trace PSA) of 280 nM and an IC50 (48 hour exposure), Prostate LnCAP (positive PSA) of 190 nM.

These data come from patent US20250296912A1.
